Assay results: PMC11229335, “The translocation activity of Rad54 reduces crossover outcomes during homologous recombination”

Key:
Experiment in all cases: EMSA; 3 mM MgCl2; 0-50 nM protein, 10 nM DNA; EMSA: 35 mM Tris-Cl pH 7.5, 3 mM MgCl2, 50 mM KCl, 1 mM DTT, 10% glycerol, 30 C, 5 min; curtains: 20 mM Tris-OAc pH 7.5, 50 mM NaCl, 10 mM MgOAc2, 200 ng/ul BSA, 1 mM DTT
Conditions in all cases: protein: recombinant; label: 5'-Atto647N on strand 1; blunt
[1] = target: T1, Rad54 R272Q (Saccharomyces cerevisiae, UniProt P32863 1-898, R272Q)
T1 sequence: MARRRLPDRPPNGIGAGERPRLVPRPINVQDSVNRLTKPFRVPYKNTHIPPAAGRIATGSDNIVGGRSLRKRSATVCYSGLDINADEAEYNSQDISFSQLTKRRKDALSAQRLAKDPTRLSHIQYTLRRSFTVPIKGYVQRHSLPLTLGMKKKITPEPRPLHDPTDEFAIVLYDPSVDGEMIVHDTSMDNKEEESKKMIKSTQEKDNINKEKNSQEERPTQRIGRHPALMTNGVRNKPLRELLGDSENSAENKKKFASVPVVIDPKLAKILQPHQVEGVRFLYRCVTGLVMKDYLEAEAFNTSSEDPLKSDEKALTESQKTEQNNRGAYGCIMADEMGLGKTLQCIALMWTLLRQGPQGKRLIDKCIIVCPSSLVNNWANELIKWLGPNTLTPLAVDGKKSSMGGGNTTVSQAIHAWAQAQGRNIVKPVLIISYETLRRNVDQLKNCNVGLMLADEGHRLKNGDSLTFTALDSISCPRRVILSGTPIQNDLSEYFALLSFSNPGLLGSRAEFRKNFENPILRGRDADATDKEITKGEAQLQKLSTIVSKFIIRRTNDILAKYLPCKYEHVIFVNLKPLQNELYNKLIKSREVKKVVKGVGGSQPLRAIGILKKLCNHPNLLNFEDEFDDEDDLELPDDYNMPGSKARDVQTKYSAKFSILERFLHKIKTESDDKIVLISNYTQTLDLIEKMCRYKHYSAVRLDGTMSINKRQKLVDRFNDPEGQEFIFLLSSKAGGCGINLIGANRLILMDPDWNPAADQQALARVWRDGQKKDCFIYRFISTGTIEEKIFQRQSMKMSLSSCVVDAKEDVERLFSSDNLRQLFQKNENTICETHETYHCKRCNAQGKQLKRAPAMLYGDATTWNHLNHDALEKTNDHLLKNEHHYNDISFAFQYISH

[2] = target: T2, Rad54 R272A (Saccharomyces cerevisiae, UniProt P32863 1-898, R272A)
T2 sequence: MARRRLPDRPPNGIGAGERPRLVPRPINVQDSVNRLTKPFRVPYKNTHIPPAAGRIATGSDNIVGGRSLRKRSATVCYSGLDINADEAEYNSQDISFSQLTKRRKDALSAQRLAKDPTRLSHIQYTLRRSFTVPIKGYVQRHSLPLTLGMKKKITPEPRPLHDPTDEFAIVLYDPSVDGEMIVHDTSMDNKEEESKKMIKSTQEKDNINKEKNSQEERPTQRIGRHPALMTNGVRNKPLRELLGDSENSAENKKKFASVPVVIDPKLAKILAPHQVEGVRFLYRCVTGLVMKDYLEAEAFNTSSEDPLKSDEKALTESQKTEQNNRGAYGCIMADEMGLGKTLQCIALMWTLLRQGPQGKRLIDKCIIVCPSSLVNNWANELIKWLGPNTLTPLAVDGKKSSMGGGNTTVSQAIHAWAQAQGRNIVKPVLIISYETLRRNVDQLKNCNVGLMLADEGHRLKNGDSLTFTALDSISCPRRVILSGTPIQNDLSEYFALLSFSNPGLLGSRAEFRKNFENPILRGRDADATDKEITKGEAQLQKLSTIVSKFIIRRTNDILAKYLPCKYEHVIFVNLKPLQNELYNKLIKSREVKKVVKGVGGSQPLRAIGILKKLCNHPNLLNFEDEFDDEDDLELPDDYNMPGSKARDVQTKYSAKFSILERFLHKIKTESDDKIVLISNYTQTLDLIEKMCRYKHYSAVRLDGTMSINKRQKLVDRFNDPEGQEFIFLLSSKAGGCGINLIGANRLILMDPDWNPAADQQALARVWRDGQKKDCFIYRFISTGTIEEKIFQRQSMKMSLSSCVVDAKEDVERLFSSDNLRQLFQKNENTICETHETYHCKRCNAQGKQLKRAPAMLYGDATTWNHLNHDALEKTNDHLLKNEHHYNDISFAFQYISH

[3] = target: T3, Rad54 (Saccharomyces cerevisiae, UniProt P32863 1-898)
T3 sequence: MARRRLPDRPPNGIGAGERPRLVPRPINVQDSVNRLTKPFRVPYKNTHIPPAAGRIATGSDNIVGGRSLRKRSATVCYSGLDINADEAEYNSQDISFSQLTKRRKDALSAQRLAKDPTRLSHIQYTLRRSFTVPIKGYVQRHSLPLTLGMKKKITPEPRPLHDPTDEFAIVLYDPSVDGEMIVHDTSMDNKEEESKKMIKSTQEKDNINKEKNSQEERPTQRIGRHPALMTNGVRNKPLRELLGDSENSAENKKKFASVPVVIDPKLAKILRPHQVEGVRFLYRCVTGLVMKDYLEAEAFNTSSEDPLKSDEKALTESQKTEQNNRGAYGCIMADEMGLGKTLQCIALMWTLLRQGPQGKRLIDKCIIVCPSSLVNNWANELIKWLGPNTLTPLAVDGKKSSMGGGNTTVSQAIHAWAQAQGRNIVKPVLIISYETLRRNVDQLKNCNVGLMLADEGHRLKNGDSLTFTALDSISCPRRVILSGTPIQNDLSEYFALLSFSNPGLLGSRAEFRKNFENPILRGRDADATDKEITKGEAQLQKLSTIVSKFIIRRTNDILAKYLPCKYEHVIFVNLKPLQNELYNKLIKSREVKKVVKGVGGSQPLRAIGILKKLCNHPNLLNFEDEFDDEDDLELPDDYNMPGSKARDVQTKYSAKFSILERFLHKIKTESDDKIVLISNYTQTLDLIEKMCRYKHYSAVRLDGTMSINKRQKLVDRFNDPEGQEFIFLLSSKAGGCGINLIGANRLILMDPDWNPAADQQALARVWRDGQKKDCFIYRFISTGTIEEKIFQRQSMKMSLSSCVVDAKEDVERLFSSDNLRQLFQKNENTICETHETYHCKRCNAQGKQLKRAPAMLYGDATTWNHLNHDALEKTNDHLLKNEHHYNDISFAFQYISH

Measured: binding result

B1: 90-mer EMSA dsDNA (dsDNA)
DNA 1: TGTAAAACGACGGCCAGTGAATTCGAGCTCGGTACCCGGGGATCCTCTAGAGTCGACCTGCAGGCATGCAAGCTTGGCGTAATCATGGTC
DNA 2: GACCATGATTACGCCAAGCTTGCATGCCTGCAGGTCGACTCTAGAGGATCCCCGGGTACCGAGCTCGAATTCACTGGCCGTCGTTTTACA
binds: all assays above
